Assay results from paper PMC4125498 (Nature structural & molecular biology, 2014).
Blank lines part the entries; values can stand above or below the binder they belong to. No end group written: not given here.

B5: human Plk4 cryptic polo box (CPB, residues 580–808), His6-MBP tag removed (domain or fragment, UniProt O00444 580-808, looked up)
chain: WGYQNRTLRSITSPLVAHRLKPIRQKTKKAVVSILDSEEVCVELVKEYASQEYVKEVLQISSDGNTITIYYPNGGRGFPLADRPPSPTDNISRYSFDNLPEKYWRKYQYASRFVQLVRSKSPKITYFTRYAKCILMENSPGADFEVWFYDGVKIHKTEDFIQVIEKTGKSYTLKSESEVNSLKEEIKMYMDHANEGHRICLALESIISEEERKTRSAPFFPIIIGRKPG

Assays:
[1] = molecular target: B5; test: fluorescence polarisation
[2] = molecular target: B5; test: fluorescence polarisation; remark: listed apart in the source
GST-Plk4 C (580–970) = molecular target: T1, GST-Plk4 C (580–970) (human, UniProt O00444 580-970); test: pull-down
T1 sequence (looked up): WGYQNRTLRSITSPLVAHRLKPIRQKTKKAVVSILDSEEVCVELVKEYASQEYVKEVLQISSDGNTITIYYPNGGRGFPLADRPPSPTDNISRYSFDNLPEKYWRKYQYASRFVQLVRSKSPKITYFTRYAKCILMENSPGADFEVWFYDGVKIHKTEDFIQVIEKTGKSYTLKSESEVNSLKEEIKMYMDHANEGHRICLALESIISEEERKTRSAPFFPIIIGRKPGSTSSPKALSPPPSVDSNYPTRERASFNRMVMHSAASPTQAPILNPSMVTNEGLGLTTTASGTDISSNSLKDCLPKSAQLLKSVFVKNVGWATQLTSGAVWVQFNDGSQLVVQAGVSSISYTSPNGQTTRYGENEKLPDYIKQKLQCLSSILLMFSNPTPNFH

[3] = molecular target: T2, His6-MBP-TEV-Cep192 58mer (201–258) (human, UniProt Q8TEP8 201-258); test: pull-down
T2 sequence (looked up): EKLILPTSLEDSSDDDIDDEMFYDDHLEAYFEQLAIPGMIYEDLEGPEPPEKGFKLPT

B1: Alexa 488-conjugated MBP-Cep152-60mer (domain or fragment, human, UniProt O94986 1-60, looked up)
chain: MSLDFGSVALPVQNEDEEYDEEDYEREKELQQLLTDLPHDMLDDDLSSPELQYSDCSEDG
modifications: also: Alexa Fluor 488 conjugated, sites not given here, MBP fusion
Kd [1]: 32 nM

Binder: B5
stoichiometry N [3]: ~2 MBP-Cep192-58mer per CPB dimer

The remaining lines, values ahead:

IC50 [2]: 64 nM
B2: His6-MBP-TEV-Cep152 60mer (1–60) (domain or fragment, human, UniProt O94986 1-60, looked up)
chain: MSLDFGSVALPVQNEDEEYDEEDYEREKELQQLLTDLPHDMLDDDLSSPELQYSDCSEDG

binding result (GST-Plk4 C (580–970)): binds
B3: His6-MBP-TEV-Cep152 (1–217) (domain or fragment, human, UniProt O94986 1-217, looked up)
chain: MSLDFGSVALPVQNEDEEYDEEDYEREKELQQLLTDLPHDMLDDDLSSPELQYSDCSEDGTDGQPHHPEQLEMSWNEQMLPKSQSVNGYNEIQSLYAGEKCGNVWEENRSKTEDRHPVYHPEEGGDEGGSGYSPPSKCEQTDLYHLPENFRPYTNGQKQEFNNQATNVIKFSDPQWNHFQGPSCQGLEPYNKVTYKPYQSSAQNNGSPAQEITGSDT

Kd [1]: 177 nM
B4: Alexa 488-conjugated MBP-Cep192-58mer (domain or fragment, human, UniProt Q8TEP8 201-258, looked up)
chain: EKLILPTSLEDSSDDDIDDEMFYDDHLEAYFEQLAIPGMIYEDLEGPEPPEKGFKLPT
modifications: also: Alexa Fluor 488 conjugated, sites not given here, MBP fusion
